Values belong to the binder of their own block, whether it stands above or below them.
Experiments:
Test in all cases: SPR, Biacore 3000; receptor captured on chip, ligand in solution
[1] = target: T1, growth differentiation factor 11 (GDF11) (UniProt O95390 299-407)
T1 construct: the embodiments speak of human GDF-11
T1 sequence (looked up): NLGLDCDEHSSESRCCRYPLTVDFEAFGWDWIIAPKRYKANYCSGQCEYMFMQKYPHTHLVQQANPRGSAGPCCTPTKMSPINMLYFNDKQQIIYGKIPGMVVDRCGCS
Description: (§1) The Biacore 3000 was used to measure the kinetics of the interactions between the ActRIIa variants and the ligands Activin A, Activin B, growth differentiation factor 11 (GDF11), and BMP-9. ActRIIa variants were transiently expressed in HEK293 cells and purified from the conditioned media using Protein-A Sepharose chromatography. The ActRIIa variants were immobilized on the chip (CM4 or CM5) with capture antibodies ([…]) in flow cells 2-4 to ensure proper orientation. Flow cell 1 was used as a reference cell to subtract any nonspecific binding and bulk effects. HBS-EP+ buffer from GE Healthcare™ was used as a running buffer. Each ligand was run in a concentration series at 40 μl/min to avoid mass transport effects. The data was analyzed using Scrubber2 by BioLogic™ Software to calculate the KD of each interaction (Table 5).

BMP-9 = target: T2, BMP-9 (UniProt Q9UK05 320-429)
T2 construct: the embodiments speak of human BMP9; also called bone morphogenetic protein 9
T2 sequence (looked up): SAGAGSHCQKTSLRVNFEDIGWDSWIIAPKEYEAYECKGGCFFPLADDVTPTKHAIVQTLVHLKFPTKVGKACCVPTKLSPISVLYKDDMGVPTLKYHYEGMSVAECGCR
Description: as §1

Activin B = target: T3, Activin B (UniProt P09529 293-407)
T3 construct: the embodiments speak of human activin B
T3 sequence (looked up): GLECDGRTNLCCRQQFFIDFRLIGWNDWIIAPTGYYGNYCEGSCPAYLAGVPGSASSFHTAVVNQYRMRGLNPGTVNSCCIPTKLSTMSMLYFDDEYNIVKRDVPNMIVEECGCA
Description: as §1

Activin A = target: T4, Activin A (UniProt P08476 311-426)
T4 construct: the embodiments speak of human activin A
T4 sequence (looked up): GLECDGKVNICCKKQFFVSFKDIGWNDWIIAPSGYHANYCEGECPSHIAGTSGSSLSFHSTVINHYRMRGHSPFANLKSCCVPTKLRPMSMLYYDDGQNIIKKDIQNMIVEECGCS
Description: as §1

binding result [1]: binds
B1: ActRIIa/b+ variant (SEQ ID NO: 150) (receptor, not shown: a dimerising Fc or GST)
chain: GAILGRSETQECLFYNANWELERTNQTGVERCEGEKDKRLHCYATWRNISGSIEIVAKGCWLDDFNCYDRTDCVETEENPQVYFCCCEGNMCNEKFSYFPEMEVTQPTS

Kd (BMP-9): 17 nM
Kd [1]: 0.114 nM
Kd (Activin B): 0.088 nM
Kd (Activin A): 0.31 nM
B2: ActRIIa/bΔ9 min variant (SEQ ID NO: 6) (receptor, not shown: a dimerising Fc or GST)
chain: AILGRSETQECLFYNANWELDRTNQTGVEPCEGEKDKRLHCFATWKNISGSIEIVKKGCWLDDINCYDRTDCVETKENPQVYFCCCEGNMCNEKFSYFPEMEVTQPTS
notes: Engineered variant of the human ActRIIa extracellular portion

Source: patent US20210030841A1 (KEROS THERAPEUTICS, published 2021)
